Reference: paper PMC6144793 (Nucleic Acids Research, 2018)

Target: the molecule itself
Assay: SEC-MALS

B1: His6-tagged Hvo_0019 (enzyme, Haloferax volcanii)
chain: MSVRDEFDAWAADGRDKGMEDRHWHTAKHALARMPVEEGDTVVDLGTGSGYALRALRDTKGIGRGFGLDGSPEMVQNARAYTDTDDLSFLVGDFDDLPFDDDSVDHVWSMEAFYYAADPHHTLEEIARILKPGGTFYCAVNYYEENVHSHEWQEHISIDMTRWSHAEYREAFRDAGLHVAEQDSIADLDIDIPAATEFPTDDWETREAMVERYRTFGTLLTVGVAP
  binding result: binds
